Laboratory results taken from publication PMC10880305.

Columns and labels:
[1] = target: T1, KDELR-mCherry (HT1080 stable) (human) (UniProt P24390)
T1 sequence: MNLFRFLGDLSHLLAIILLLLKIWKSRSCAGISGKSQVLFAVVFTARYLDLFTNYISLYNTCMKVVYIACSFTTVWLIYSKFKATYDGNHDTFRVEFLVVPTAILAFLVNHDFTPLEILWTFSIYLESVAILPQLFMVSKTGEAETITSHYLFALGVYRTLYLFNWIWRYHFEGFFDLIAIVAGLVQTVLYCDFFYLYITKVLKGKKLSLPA

Halo-KDELR-V5-VN (human) = target: T2, Halo-KDELR-V5-VN (human) (UniProt P24390)
T2 sequence: T1 sequence

phosphorylation of STAT3 (Tyr705) in HT1080 cells stably overexpressing KDELR-mCherry, 50 μM TAEKDEL at 37 °C for 30 min, western blot [1]: 37% | Venus signal of Halo-KDELR-V5-VN with Halo-KDELR-myc-VC (split Venus), 30 min against 0 min with 50 μM TAEKDEL peptide (Halo-KDELR-V5-VN (human)): 2 fold
Binder: TAEKDEL [TAEKDEL peptide]
